Data as given in patent publication US20150203575A1 (Genentech, published 2015).

T1: MAG expressed on cells (human, UniProt P20916 20-626)
T1 construct: Clone of the Origene human cDNA library; also called Myelin associated glycoprotein; SIGLEC4A
T1 sequence: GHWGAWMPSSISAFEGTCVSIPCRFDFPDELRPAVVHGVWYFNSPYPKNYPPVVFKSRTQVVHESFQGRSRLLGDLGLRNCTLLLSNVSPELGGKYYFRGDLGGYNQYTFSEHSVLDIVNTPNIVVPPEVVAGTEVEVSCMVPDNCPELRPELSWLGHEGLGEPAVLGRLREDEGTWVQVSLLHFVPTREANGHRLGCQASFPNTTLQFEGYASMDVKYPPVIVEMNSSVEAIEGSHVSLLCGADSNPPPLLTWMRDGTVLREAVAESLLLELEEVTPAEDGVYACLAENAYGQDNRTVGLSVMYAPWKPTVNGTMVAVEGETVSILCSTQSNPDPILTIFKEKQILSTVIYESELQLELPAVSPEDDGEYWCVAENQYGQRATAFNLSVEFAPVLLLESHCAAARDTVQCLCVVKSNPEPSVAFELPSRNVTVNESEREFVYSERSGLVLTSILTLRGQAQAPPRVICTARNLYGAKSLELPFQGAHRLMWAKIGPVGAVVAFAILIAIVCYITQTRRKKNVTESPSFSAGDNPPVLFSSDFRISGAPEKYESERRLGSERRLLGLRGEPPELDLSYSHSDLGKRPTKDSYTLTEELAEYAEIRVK

T2: mouse CD99 expressed on 293T cells (mouse, UniProt Q8VCN6 29-175, sialylated O-glycans at Thr-45 and Thr-50 (cited as relevant for PILRα recognition))
T2 construct: whole, on cells; also called mCD99; mCD99 transfectants
T2 sequence (looked up): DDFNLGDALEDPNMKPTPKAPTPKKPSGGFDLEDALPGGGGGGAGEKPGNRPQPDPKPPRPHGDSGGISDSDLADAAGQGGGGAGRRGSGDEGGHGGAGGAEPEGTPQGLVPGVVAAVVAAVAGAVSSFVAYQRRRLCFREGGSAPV

T3: human NPDC1 expressed on cells (human, UniProt Q9NQX5 35-325)
T3 construct: also called hNPDC1; hNPCD1
T3 sequence: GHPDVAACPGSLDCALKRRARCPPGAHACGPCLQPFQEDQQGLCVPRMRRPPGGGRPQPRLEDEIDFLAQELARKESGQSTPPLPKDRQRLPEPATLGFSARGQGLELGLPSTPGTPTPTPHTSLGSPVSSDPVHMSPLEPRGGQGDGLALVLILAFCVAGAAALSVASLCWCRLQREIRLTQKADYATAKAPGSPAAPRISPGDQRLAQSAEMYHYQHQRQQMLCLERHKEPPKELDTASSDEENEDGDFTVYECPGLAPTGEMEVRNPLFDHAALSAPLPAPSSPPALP

T4: BR3 expressed on cells (human, UniProt Q96RJ3 1-184)
T4 construct: Clone of the Origene human cDNA library
T4 sequence: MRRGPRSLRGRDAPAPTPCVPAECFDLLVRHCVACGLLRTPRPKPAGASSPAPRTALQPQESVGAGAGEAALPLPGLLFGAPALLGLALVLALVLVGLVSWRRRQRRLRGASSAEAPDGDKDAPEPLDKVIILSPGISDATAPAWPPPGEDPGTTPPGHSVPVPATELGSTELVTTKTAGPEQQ

B1: mPILRα-Fc (Fc fusion)
chain: not shown
notes: also called mouse PILRα-Fc; WT mPILRα-Fc; not shown: Fc of mouse IgG2a (PILRα-mIgG2a, called PILRα-Fc)
B2: hPILRα-AP (other)
chain: QPSGSTGSGPSYLYGVTQPKHLSASMGGSVEIPFSFYYPWELATAPDVRISWRRGHFHRQSFYSTRPPSIHKDYVNRLFLNWTEGQKSGFLRISNLQKQDQSVYFCRVELDTRSSGRQQWQSIEGTKLSITQAVTTTTQRPSSMTTTWRLSSTTTTTGLRVTQGKRRSDSWHISLET
notes: Used as culture supernatant; also called human PILRα-AP; Alkaline phosphatase (AP)-tagged PILRα construct; not shown: C-terminal alkaline phosphatase (AP) tag

How the values were obtained:
MAG expressed on cells = target: T1, MAG expressed on cells; assay: flow cytometry, transfected 293T cells, 50 µg/ml
[1] = target: T2, mouse CD99 expressed on 293T cells; assay: flow cytometry, transfected 293T cells, 2 µg/ml; 293T-Neo: 0
[2] = target: T3, human NPDC1 expressed on cells; assay: as above
[3] = target: T5, human COLEC12 expressed on cells (human, UniProt Q5KU26 1-742); assay: as above
T5 construct: also called hCOLEC12; C-terminal his tagged hCOLEC12
T5 sequence (Q5KU26 whole entry S522P/G606S): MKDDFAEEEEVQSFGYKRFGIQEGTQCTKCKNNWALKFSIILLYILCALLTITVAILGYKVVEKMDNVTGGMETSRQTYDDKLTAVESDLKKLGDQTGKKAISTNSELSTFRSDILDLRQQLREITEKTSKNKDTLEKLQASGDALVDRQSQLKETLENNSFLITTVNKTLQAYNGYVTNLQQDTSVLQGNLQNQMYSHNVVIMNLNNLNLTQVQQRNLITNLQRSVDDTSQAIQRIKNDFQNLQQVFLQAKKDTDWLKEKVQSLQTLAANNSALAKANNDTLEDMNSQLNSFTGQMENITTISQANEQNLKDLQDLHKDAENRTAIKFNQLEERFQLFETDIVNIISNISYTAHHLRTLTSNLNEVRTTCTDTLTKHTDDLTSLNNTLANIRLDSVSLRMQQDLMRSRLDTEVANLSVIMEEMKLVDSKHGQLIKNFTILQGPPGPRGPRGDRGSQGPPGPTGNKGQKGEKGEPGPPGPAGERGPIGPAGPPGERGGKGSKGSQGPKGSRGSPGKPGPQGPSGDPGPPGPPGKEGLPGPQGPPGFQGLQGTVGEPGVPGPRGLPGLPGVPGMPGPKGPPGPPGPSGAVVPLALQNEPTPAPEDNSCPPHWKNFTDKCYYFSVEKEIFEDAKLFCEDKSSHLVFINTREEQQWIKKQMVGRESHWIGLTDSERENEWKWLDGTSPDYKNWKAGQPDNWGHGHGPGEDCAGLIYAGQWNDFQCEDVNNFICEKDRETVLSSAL

[4] = target: T2, mouse CD99 expressed on 293T cells; assay: flow cytometry, transfected 293T cells, 50 µg/ml; 293T-Neo: 1.1
BR3 expressed on cells = target: T4, BR3 expressed on cells; assay: cDNA expression library screen with PILRα-AP supernatant on COS7 transfectants; positive clones further analysed by FACS
Protocol: (§1) COS7 cells were plated in a 24-well format and transfected with 10 ul of Origene library DNA (Origene, human DNA library containing 20 k genes) per well with Fugene 6 Reagent. Two days later, cells were incubated with human or mouse PILRα-Ap supernatants for 45 min at room temperature (RT). Then cells were fixed with 4% PFA for 15 min at RT. After removing fixation buffer, cells were blocked with 100 mM Glycine in HBS (20 mM Hepes, PH7.2, 150 mM NaCl) for 15 min at RT. Cells were then rinsed and incubated in HBS for 90 min at 65° C. HBS was removed and Western Blue Substrate (Promega) was added and color was developed for 30 min to 1 hr.

WDR31 expressed on cells = target: T6, WDR31 expressed on cells (human, UniProt Q8NA23 1-367); assay: as above
T6 construct: Clone of the Origene human cDNA library; also called WD repeat domain 31
T6 sequence (Q8NA23 other isoform, or with tags, fused parts or gaps): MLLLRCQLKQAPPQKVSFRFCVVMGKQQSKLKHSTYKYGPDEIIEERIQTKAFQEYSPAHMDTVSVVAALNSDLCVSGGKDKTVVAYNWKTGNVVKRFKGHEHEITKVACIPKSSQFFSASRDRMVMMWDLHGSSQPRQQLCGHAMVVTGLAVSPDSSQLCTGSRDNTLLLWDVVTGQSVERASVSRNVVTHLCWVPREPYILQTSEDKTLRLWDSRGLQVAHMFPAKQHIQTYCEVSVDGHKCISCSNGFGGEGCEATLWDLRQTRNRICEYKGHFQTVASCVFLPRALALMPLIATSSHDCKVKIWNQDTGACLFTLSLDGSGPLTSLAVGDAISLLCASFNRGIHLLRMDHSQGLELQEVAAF
Protocol: as §1

[5] = target: T7, LRRTM4 expressed on cells (human, UniProt Q86VH4 31-590); assay: as above
T7 construct: Clone of the Origene human cDNA library; also called Leucine rich repeat transmembrane neuronal 4
T7 sequence (Q86VH4 31-590 limits assumed): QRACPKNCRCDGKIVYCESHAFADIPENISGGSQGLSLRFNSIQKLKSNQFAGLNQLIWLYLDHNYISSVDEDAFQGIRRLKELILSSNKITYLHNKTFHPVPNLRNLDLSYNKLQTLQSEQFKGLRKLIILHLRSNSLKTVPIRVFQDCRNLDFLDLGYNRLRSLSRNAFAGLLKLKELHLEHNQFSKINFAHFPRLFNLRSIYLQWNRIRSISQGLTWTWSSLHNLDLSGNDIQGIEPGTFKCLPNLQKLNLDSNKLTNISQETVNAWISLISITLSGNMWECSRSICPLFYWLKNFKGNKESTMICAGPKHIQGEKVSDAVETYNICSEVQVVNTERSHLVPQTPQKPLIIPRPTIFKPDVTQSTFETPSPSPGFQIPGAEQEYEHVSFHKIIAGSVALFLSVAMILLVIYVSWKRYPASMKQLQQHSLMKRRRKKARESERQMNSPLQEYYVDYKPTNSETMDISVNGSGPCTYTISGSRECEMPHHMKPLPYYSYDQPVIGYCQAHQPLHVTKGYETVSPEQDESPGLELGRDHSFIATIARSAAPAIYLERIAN
Protocol: as §1

[6] = target: T8, IL15-RA expressed on cells (human, UniProt Q13261 31-267); assay: as above
T8 construct: Clone of the Origene human cDNA library; also called Interleukin 15 receptor alpha
T8 sequence (Q13261 31-267 limits assumed): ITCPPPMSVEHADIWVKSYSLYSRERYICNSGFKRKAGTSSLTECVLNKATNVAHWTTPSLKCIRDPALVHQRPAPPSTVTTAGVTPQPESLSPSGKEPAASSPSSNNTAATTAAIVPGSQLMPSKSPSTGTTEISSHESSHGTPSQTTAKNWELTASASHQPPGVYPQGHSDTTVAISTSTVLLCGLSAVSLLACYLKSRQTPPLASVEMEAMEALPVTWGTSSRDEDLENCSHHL
Protocol: as §1

Binder | % cells in lower right quadrant (MAG expressed on cells) [%] | % cells in lower right quadrant [1] [%] | % cells in lower right quadrant [2] [%] | % cells in lower right quadrant [3] [%] | % cells in lower right quadrant [4] [%] | binding result (BR3 expressed on cells) | binding result (WDR31 expressed on cells) | binding result [5] | binding result [6]
B1 | 0.55 | 34 | 29.6 | 0.082 | 46.4 |  |  |  | 
B2 |  |  |  |  |  | binds | binds | binds | binds
